From paper PMC11255114
Each block holds one substance with its values, some of them ahead of it.

What was measured:
[1] = target: Anti-TRAP (AT), mature deformylated form, trimer AT3 (assembly unit) (UniProt O31466+O31466); experiment: Sedimentation velocity analytical ultracentrifugation (interference optics, 50,000 rpm); settings: pH 8; 25 °C; 100 mM NaCl plus 50 mM sodium phosphate; 50 mM sodium phosphate at pH 7, 7.25, 7.5 and 8 (Fig. 4 caption also lists pH 7.75)
[2] = target: Bacillus subtilis Anti-TRAP protein (AT), mature (deformylated) (Bacillus subtilis); experiment: AUC; sedimentation velocity, interference optics, 25 °C, 50,000 rpm; 50 mM sodium phosphate, 100 mM NaCl, 0.5 mM tryptophan, 0.02 % NaN3, pH 7 to 8; 65-500 µM AT monomer; global fit in SEDPHAT to a three-state model, 4 AT3 to 2 AT6 to AT12; apparent rate constants, KD from their ratio
[3] = target: N-formylmethionine Anti-TRAP (fAT), trimer fAT3 none (N-terminal formylation of Met1) (UniProt O31466); experiment: Small-angle X-ray scattering (SIBYLS beamline, ALS); settings: pH 8, 100 mM NaCl, 50 mM sodium-phosphate
[4] = target: N-terminal formylmethionine Anti-TRAP (fAT) of Bacillus subtilis (Bacillus subtilis); experiment: NMR solution structure; fAT3, data at 55 °C; NOEs, torsion angles, RDCs, three-fold symmetry and SAXS restraints; homo-trimer
[5] = target: N-terminal formylmethionine Anti-TRAP (fAT) of Bacillus subtilis (Bacillus subtilis); experiment: SAXS; fAT at 1, 2, 3.3, 5 and 10 mg/mL in 50 mM sodium phosphate pH 8, 100 mM NaCl, 200 µM ZnCl2, 1 mM TCEP; SIBYLS beamline; deconvolution into trimer and dodecamer
[6] = target: N-terminal formylmethionine Anti-TRAP (fAT) of Bacillus subtilis (Bacillus subtilis); experiment: NMR spectra (1H-15N HSQC); 3 mM fAT in 20 mM d11-Tris pH 7.5, 20 mM β-mercaptoethanol, 1 mM ZnCl2; also a pH series 6.5 to 8.0 at 25 °C; step looked at for non-binding: trimers to dodecamer

- equilibrium (dissociation) constant, step 2 (2 AT6 <-> AT12) [1]: 0.05 to 50 µM (upper end of range)
Substance: Anti-TRAP (AT), mature deformylated form, trimer AT3 (assembly unit)

- KD of the first step (two AT3 to AT6) [2]: 20 to 90 µM
- stoichiometry N [2]: 6
Substance: Bacillus subtilis Anti-TRAP protein (AT), mature (deformylated) (natural protein)

- fraction of dodecamer in fAT by SAXS deconvolution [3]: <3% at 10 mg/mL
Substance: N-formylmethionine Anti-TRAP (fAT), trimer fAT3 none (N-terminal formylation of Met1)

- percent dodecamer [5]: < 3%
- stoichiometry N [6]: 3
Substance: N-terminal formylmethionine Anti-TRAP (fAT) of Bacillus subtilis (natural protein)
- stoichiometry N [4]: 3
